The record followed here is paper PMC5835670.

This assay addresses SbSTOP1d-NT (N-terminal fragment of SbSTOP1d, 1-275 aa, truncated before the zinc finger domain) fused to the GAL4 DNA-binding domain (Sorghum bicolor (sweet sorghum)). The experiment in a line: two-hybrid; β-galactosidase assay in yeast strain Y190 with CPRG as substrate, Miller units; BD-SbSTOP1d-NT bait, AD fusion prey.

Turning to “SbSTOP1b fused to the GAL4 activation domain (natural protein)”, the β-galactosidase activity, fold of the control (times that of the control) came out at 80.

As for “SbSTOP1d fused to the GAL4 activation domain (natural protein)”, the β-galactosidase activity, fold of the control (times that of the control) turned out to be 450.
